The record followed here is patent US20240317841A1.

Positions count from the first letter of the chain named.

Assay [1] has as its target H4 (Influenza A virus). Description: FACS, HA on mammalian cells; 2nd only 11. For orientation: A flow cytometer gives signals particle by particle.
The target of assay [2] is H17 (Influenza A virus). The experiment in a line: FACS, HA on mammalian cells; 2nd only 4.1.
Assay [3] deals with H12 (Influenza A virus). Description: flow cytometry, HA on mammalian cells; mock cells 0.96.
In assay [4] the target is H13 (Influenza A virus). The description is as above.
Assay [5] deals with H8 (Influenza A virus). The assay is described as above.
The target in assay [6] is H4 (Influenza A virus). Described as above.
Assay [7] addresses H10 (Influenza A virus). The description is as above.
In assay [8] the target is H11 (Influenza A virus). The assay is described as above.
The target in assay [9] is H15 (Influenza A virus). Description: flow cytometry, HA on mammalian cells; mock cells 0.96 [cont'd].
The target in assay [10] is H18 (Influenza A virus). Described as above.
Assay [11] deals with H17 (Influenza A virus). The description is as above.
Assay [12] addresses H14 (Influenza A virus). Described as above.
Assay [13] has as its target H16 (Influenza A virus). The assay is described as above.
In assay [14] the target is H15 (Influenza A virus). Description: FACS, HA on mammalian cells; 2nd only 12.
For assay [15], the target named is H13 (Influenza A virus). The experiment in a line: FACS, HA on mammalian cells; 2nd only 12.
Assay [16] has as its target H14 (Influenza A virus). The experiment in a line: FACS, HA on mammalian cells; 2nd only 12.
Assay [17] deals with HA from an H1N1 Swine Eurasian avian-like (EA) strain, A/Swine/Jiangsu/J004/2018 (influenza A virus (H1N1, A/Swine/Jiangsu/J004/2018)). The experiment in a line: flow cytometry, HA on mammalian cells; mock 7.62 [Cont'd].
Assay [18] has the same target. Description: flow cytometry, HA on mammalian cells; mock 4.30.
Assay [19] addresses H16 (Influenza A virus). Description: FACS, HA on mammalian cells; 2nd only 6.9.
Assay [20] deals with HA from an H1N1 Swine Eurasian avian-like (EA) strain, A/Swine/Jiangsu/J004/2018 (influenza A virus (H1N1, A/Swine/Jiangsu/J004/2018)). Description: flow cytometry, HA on mammalian cells; mock 3.31 [Cont'd].
Assay [21] shares this target. Description: flow cytometry, HA on mammalian cells; mock 4.41.
The target of assay [22] is H5 hemagglutinin (influenza A virus). Description: BLI, HA-5. On the technique in general: Biolayer interferometry detects binding as a change in optical thickness at a sensor tip.
Assay [23] has as its target H7 hemagglutinin (influenza A virus). The experiment in a line: BLI, HA-7.
Assay [24] has as its target H5 hemagglutinin (influenza A virus). Description: BLI, HA-5; printed as kdis.
Assay [25] has as its target H11 (Influenza A virus). The experiment in a line: FACS, HA on mammalian cells; 2nd only 8.1.
The target of assay [26] is H1-CAL (Influenza A virus). The experiment in a line: FACS, HA on mammalian cells; 2nd only 7.4.
The target of assay [27] is H7 hemagglutinin (influenza A virus). The experiment in a line: BLI, HA-7; printed as kdis.
Assay [28] deals with H8 (Influenza A virus). The experiment in a line: FACS, HA on mammalian cells; 2nd only 7.9.
The target of assay [29] is H10 (Influenza A virus). Description: FACS, HA on mammalian cells; 2nd only 8.7.
For assay [30], the target named is H1-SC (Influenza A virus). The experiment in a line: FACS, HA on mammalian cells; 2nd only 7.5.
The target in assay [31] is H12 (Influenza A virus). Description: FACS, HA on mammalian cells; 2nd only 9.7.
Assay [32] addresses H18 (Influenza A virus). The experiment in a line: FACS, HA on mammalian cells; 2nd only 5.5.
For assay [33], the target named is H12 (Influenza A virus). The experiment in a line: flow cytometry, HA on mammalian cells; mock cells 1.12.
Assay [34] concerns the target H13 (Influenza A virus). Described as above.
For assay [35], the target named is H8 (Influenza A virus). The assay is described as above.
The target in assay [36] is H4 (Influenza A virus). The description is as above.
In assay [37] the target is H10 (Influenza A virus). Described as above.
Assay [38] has as its target H11 (Influenza A virus). The description is as above.
In assay [39] the target is H15 (Influenza A virus). Description: flow cytometry, HA on mammalian cells; mock cells 1.12 [cont'd].
The target of assay [40] is H18 (Influenza A virus). Described as above.
For assay [41], the target named is H17 (Influenza A virus). The description is as above.
Assay [42] concerns the target H14 (Influenza A virus). The description is as above.
The target of assay [43] is H16 (Influenza A virus). The description is as above.
For assay [44], the target named is H5 hemagglutinin (influenza A virus). Description: BLI, HA-5 [Cont'd].
Assay [45] concerns the target H7 hemagglutinin (influenza A virus). The experiment in a line: BLI, HA-7; given as kdis.
For assay [46] the target is unchanged. Description: BLI, HA-7 [Cont'd].
The target of assay [47] is H5 hemagglutinin (influenza A virus). The experiment in a line: BLI, HA-5; given as kdis.

B1: FHF11 (antibody, V domains shown)
VH: QVQLQQSGPGLVKPSQTLSVTCGISGDSVSSHSAAWNWIRQSPSRGLEWLGRTYYRSKWYNDYAVSVKSRITINPDTSKNQFSLQLISVTPEDTAVYYCARVGAMTFGLLTGGMDVWGQGTTVTVSS
VL: EIVLTQSPGTQSLSPGERATLSCRASQSLSRSYLAWYQQRPGKPPRLLIYGASSRATGIPDRFSGSGSGTDFSLTISSLEPEDSAMYFCQYYGDSPLFSFGPGTKVDIK
In general, Kd refers to the constant that tells how readily two partners part at equilibrium. The kon is the second-order rate constant of association. A high value points to fast association. In general, koff refers to a measure of how fast the partners let go of each other. In the case of B1, the % cells binding to HA with H4 (Influenza A virus) [1] was 54%; with H17 (Influenza A virus) [2], 82%; in the assay with H15 (Influenza A virus) [14], 76%; in the assay with H13 (Influenza A virus) [15], 79%; in the assay with H14 (Influenza A virus) [16], 79%; with H16 (Influenza A virus) [19], 20%. Besides, the % cells binding to HA with H11 (Influenza A virus) [25] stood at 62%; in assay [26] it was 88%; in the assay with H8 (Influenza A virus) [28] it was 80%; in the assay with H10 (Influenza A virus) [29], 82%; in [30], 83%; with H12 (Influenza A virus) [31], 86%. This molecule also came in with a % cells binding to HA with H18 (Influenza A virus) [32] of 80%. Also, the percent of cells in the gate in the assay with H12 (Influenza A virus) [3] was determined as 79.1; in the assay with H13 (Influenza A virus) [4], 75.8; with H8 (Influenza A virus) [5], 89.2; with H4 (Influenza A virus) [6] it was 40.6; in the assay with H10 (Influenza A virus) [7] it was 89.7; with H11 (Influenza A virus) [8], 42.7. For the same molecule, the percent of cells in the gate came to 75.6 in the assay with H15 (Influenza A virus) [9]; 94.3 with H18 (Influenza A virus) [10]; 98.2 in the assay with H17 (Influenza A virus) [11]; 75.2 with H14 (Influenza A virus) [12]; 23.2 in the assay with H16 (Influenza A virus) [13]. Moreover, the Alexa 647-A+ (percent of cells) at 0.4 µg/ml in [17] worked out at 84.5. The molecule also had an Alexa 647-A+ (percent of cells) at 50 µg/ml in assay [18] of 90.7. Further, the Alexa 647-A+ (percent of cells) at 2 µg/ml in assay [20] came out at 89.2. The same molecule had an Alexa 647-A+ (percent of cells) at 10 µg/ml in assay [21] of 90.7. Moreover, the dissociation constant (Kd) was less than 0.001 nM in assay [22] and 2.03 nM in assay [23]. Also, the kon came to 19900 M⁻¹ s⁻¹ in assay [22] and 24400 M⁻¹ s⁻¹ in assay [23]. Also, the koff is less than 1e-07 s⁻¹ in [24] and 4.95e-05 s⁻¹ in assay [27].

B2: FHF12 (antibody, V domains shown)
VH: B1 VH with G23A, I87V, M105A, L109I
VL: B1 VL with E17D
On to B2, for which the Alexa 647-A+ (percent of cells) at 0.4 µg/ml in [17] worked out at 85.1. The molecule further came in with an Alexa 647-A+ (percent of cells) at 2 µg/ml in [20] of 90.5. The same molecule gave an Alexa 647-A+ (percent of cells) at 10 µg/ml in [21] of 90.6. Also, the percent of cells in the gate with H12 (Influenza A virus) [33] was 75.3; with H13 (Influenza A virus) [34], 79.2; with H8 (Influenza A virus) [35], 89.6; with H4 (Influenza A virus) [36], 72.2; with H10 (Influenza A virus) [37] it was 88.5; with H11 (Influenza A virus) [38], 37.8. The percent of cells in the gate with H15 (Influenza A virus) [39] was 77.2; in the assay with H18 (Influenza A virus) [40] it was 94.8; in the assay with H17 (Influenza A virus) [41], 98; with H14 (Influenza A virus) [42] it was 80.4; in the assay with H16 (Influenza A virus) [43] it was 25.7.

B3: FHF11v6 (antibody, V domains shown)
VH: B1 VH with K58G
VL: B1 VL
In the case of B3, the % cells binding to HA is 49% with H4 (Influenza A virus) [1]; 82% with H17 (Influenza A virus) [2]; 75% with H15 (Influenza A virus) [14]; 69% in the assay with H13 (Influenza A virus) [15]; 70% in the assay with H14 (Influenza A virus) [16]; 11% with H16 (Influenza A virus) [19]. Moreover, the % cells binding to HA is 59% with H11 (Influenza A virus) [25]; 85% in assay [26]; 77% with H8 (Influenza A virus) [28]; 82% in the assay with H10 (Influenza A virus) [29]; 82% in assay [30]; 87% with H12 (Influenza A virus) [31]. The same molecule returned a % cells binding to HA with H18 (Influenza A virus) [32] of 79%. Besides, the dissociation constant (Kd) is less than 0.001 nM in assay [44] and 10.4 nM in [46]. Also, the on-rate (kon) in assay [44] amounted to 13600 M⁻¹ s⁻¹; in assay [46] it was 16400 M⁻¹ s⁻¹. Also, the koff in assay [45] is 0.000169 s⁻¹; in assay [47], less than 1e-07 s⁻¹.

B4: FHF11v3 (antibody, V domains shown)
VH: B1 VH with H32Y
VL: B1 VL
Regarding B4, the % cells binding to HA amounted to 48% in the assay with H4 (Influenza A virus) [1]; 82% in the assay with H17 (Influenza A virus) [2]; 66% with H15 (Influenza A virus) [14]; 79% with H13 (Influenza A virus) [15]; 70% in the assay with H14 (Influenza A virus) [16]; 22% with H16 (Influenza A virus) [19]. Besides, the % cells binding to HA was determined as 59% with H11 (Influenza A virus) [25]; 84% in assay [26]; 78% with H8 (Influenza A virus) [28]; 77% in the assay with H10 (Influenza A virus) [29]; 82% in assay [30]; 85% in the assay with H12 (Influenza A virus) [31]. The molecule further returned a % cells binding to HA in the assay with H18 (Influenza A virus) [32] of 79%. In addition, the Kd in assay [22] is less than 0.001 nM; in assay [23], 5.11 nM. Besides, the kon in assay [22] was 16400 M⁻¹ s⁻¹; in assay [23] it was 23000 M⁻¹ s⁻¹. Also, the off-rate (koff) was less than 1e-07 s⁻¹ in assay [24] and 0.000118 s⁻¹ in [27].

B5: FHF11v9 (antibody, V domains shown)
VH: B1 VH with H32Y, K58G
VL: B1 VL
As to B5, the % cells binding to HA with H4 (Influenza A virus) [1] is 47%; in the assay with H17 (Influenza A virus) [2], 82%; with H15 (Influenza A virus) [14] it was 63%; in the assay with H13 (Influenza A virus) [15], 75%; in the assay with H14 (Influenza A virus) [16], 70%; with H16 (Influenza A virus) [19], 13%. In addition, the % cells binding to HA with H11 (Influenza A virus) [25] is 59%; in [26] it was 85%; with H8 (Influenza A virus) [28], 78%; in the assay with H10 (Influenza A virus) [29] it was 79%; in [30], 80%; with H12 (Influenza A virus) [31], 86%. Besides, the % cells binding to HA with H18 (Influenza A virus) [32] came to 78%. Moreover, the Kd was less than 0.001 nM in assay [44] and 9.76 nM in assay [46]. Also, the results for the kon in [44] and in [46] were 16200 M⁻¹ s⁻¹ and 19800 M⁻¹ s⁻¹, respectively. Moreover, the koff in assay [45] was 0.000193 s⁻¹; in assay [47], less than 1e-07 s⁻¹.
